Results as given in publication PMC7817693.
Where “and” joins values, the source holds several entries; their conditions need not be identical. Equal entries are not always repeated.

Target: p53 (94-393) WT, thermostable deltaN (Homo sapiens) (UniProt P04637)
Assay: fluorescence polarization
Details: FP at 25 °C, 2.5 nM FAM-dsDNA, 200 or 275 mM NaCl, 20 mM bis-tris propane pH 6.8, 5% glycerol, 0.1 mg/ml BSA, 0.5 mM TCEP, 10 min, mean of n = 2

p53 (94-393) WT, thermostable deltaN (Homo sapiens), sequence (P04637 94-393, stated change not applied): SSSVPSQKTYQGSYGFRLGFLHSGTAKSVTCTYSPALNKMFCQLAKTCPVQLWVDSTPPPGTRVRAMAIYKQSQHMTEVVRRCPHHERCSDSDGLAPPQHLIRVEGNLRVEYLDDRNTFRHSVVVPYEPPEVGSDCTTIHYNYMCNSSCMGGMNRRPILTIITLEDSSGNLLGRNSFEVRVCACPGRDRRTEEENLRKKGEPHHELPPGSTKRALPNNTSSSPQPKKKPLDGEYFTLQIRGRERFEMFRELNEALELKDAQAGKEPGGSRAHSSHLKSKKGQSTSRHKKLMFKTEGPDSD

Row | Sequence | Kd | other results
1 | ATGATGATAGACAAGTCAGGACTTAACTATATGATG (double strand) [MDM2 RE] | 0.02 µM and 0.097 µM | 
2 | ATGATGATAGGCATGCCTAGGCATGCCTATATGATG (double strand) [6FJ5_8/18 I/C] |  | Kd (inosine (written as G): strand 2 nt 21 and 11 (opposite RE positions 8 and 18), supplement also prints I at strand 1 nt 21 (RE position 13), Table 1 prints G there): 0.008 µM and 0.058 µM
3 | ATGATGATAGGCATGTCCCAACATGCCCATATGATG (double strand) [APBB2 RE] | 0.01 µM and 0.04 µM | 
4 | ATGATGATGAACATGCCCCAGCATGTTGATATGATG (double strand) [p21_8/13] | 0.033 µM and 0.099 µM | 
5 | ATGATGATGAACATGTCCCAACATGTTGATATGATG (double strand) [p21 RE] | 0.026 µM and 0.023 µM | 
6 | ATGATGATGAACGTGTCCGGACAGGTCGATATGATG (double strand) [NOXA_3/13] | 0.023 µM and 0.06 µM | 
7 | ATGATGATGAGCGTGTCCGGGCAGGTCGATATGATG (double strand) [NOXA RE] | 0.045 µM and 0.446 µM | 
8 | ATGATGATGGGCAGGCCCGGGCTTGTCGATATGATG (double strand) [BAX_8/13 I/C] |  | Kd (inosine (written as G): strand 1 nt 21 (RE position 13), strand 2 nt 21 (opposite RE position 8)): 0.009 µM and 0.083 µM
9 | ATGATGATGGGCAGGTCCGGACTTGTCGATATGATG (double strand) [BAX_8/13] | 0.008 µM and 0.04 µM | 
10 | ATGATGATGGGCATGTCTGGGCATGTCTATATGATG (double strand) [3Q05 pdb RE] | 0.006 µM | 
